Data taken from the supplement of paper PMC10567573.

B1: BTBD1 (parent)
chain: FVLGKGRGAAAAGGPQRIPAHRFV
B2: KRT13 (parent)
chain: KTIEELRDKILTATIENNRVILEI

Variants of: B1
Assay: protein stability index of a GFP-peptide fusion (GPS, HEK-293T) (PSI 1-6); higher = more stable
Conditions: c terminus: a fixed tail appended
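Further: lentivirally expressed fusions sorted by FACS into six bins by GFP to DsRed ratio, PSI derived from sequencing read proportions per bin multiplied by bin number.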

Protein stability index, by site and new letter:
V24: Q 1.7, T 2.84, L 1.73
A20: Q 1.73, G 1.46, S 1.53, H 2.4, E 2.49
K5: Y 2.95, P 1.74, S 1.98, M 2.82, Q 1.8, L 1.59, D 1.89, A 1.2
G13: M 2.07, Y 1.57, K 1.16, V 1.36, D 2.24
A12: L 1.38, D 1.91, G 2.21
F23: Y 1.71, V 1.93, C 1.08, P 2.43, Q 2.19, S 2.93
G8: R 1.78, D 2.13, E 2.01, P 1.55
L3: M 1.92, G 1.61, E 1.56, S 3, Q 1.3, N 2.12, D 2.2, H 2.63
G4: Y 2.21, M 1.38, I 1.98, F 2.27, S 1.61, C 1.54, L 2.39, W 1.2, D 1.53
G6: V 1.69, M 1.38, I 2.4, T 1.61, K 1.69, E 2.1
A9: Y 1.87, K 1.92, C 2.47, P 1.6, G 1.72
Q16: N 2.54, E 1.67, R 1.9, T 1.39
P19: V 1.26, H 1.27, I 2.16, A 1.34, E 1.78, S 1.31, D 1.53, N 2.06
A10: R 1.91, M 1.34, N 1.96, W 1.98, L 1.46, K 2.08, Q 2.03
R22: V 2.14, H 1.72, N 2.53, M 4.76
V2: I 1.68, E 3.38, S 3.35, K 2.85
R7: P 1.98, M 2.03, Q 1.82, D 1.49, Y 1.72, E 1.48, T 2.23
I18: W 1.91, Y 1.74, N 2.12
G14: M 1.88, Q 2.88, C 2.08, H 1.87, Y 1.07, K 2.83
F1: D 3.02, R 3.35, W 1.95, N 3.31, G 3.51, M 2.29
R17: K 2.01, D 2.54, I 3.15, C 1.9, V 2.52, W 1.41, L 2.01
P15: E 1.81, S 1.7, D 1.86, W 1.03, N 1.52, Q 1.5, T 2, Y 1.49, K 1.06
H21: S 1.56, P 1.97, N 1.88, V 2.72, L 2.61, F 4.04, G 1.77, R 2.32
A11: Y 1.63, N 1.71, W 2.84, I 1.87, D 1.14, E 1.94, F 1.04

Variants of: B2
Assay: as above
Conditions: c terminus: a fixed tail appended

Protein stability index, by site and new letter:
N17: L 1.78, I 1.73, T 3.19, E 2.73, D 2.84, K 2.4, V 1.59, Q 3.06, P 3.1, G 3.5, C 3.65, M 2.57
A13: T 1.92, M 1.08, G 3.86, V 3, C 2.5, D 1.53, Q 1.81, P 1.87, N 2.31, L 2.61, W 2.81, K 1.67, H 2.38, S 3.69, R 3.35
I24: R 1.98, N 2.64, M 1.9, C 2.44, W 2.09, H 1.93, K 3.08, D 3.09, V 2.97, S 1.92, T 1.73, G 2.63, Q 2.44, F 3, A 2.65, P 3.4, E 2.65, Y 2.16, L 3.35
E23: F 4.41, K 1.25, L 2.42, Q 2.47, G 2.06, D 2.45, I 2.71, H 2.05, R 2.55, W 2.9, S 2.78, T 2.79, P 2.08, A 1.85, M 3.54, Y 2.07, V 3.08
T12: Y 3.8, Q 2.65, G 1.59, H 2.66, A 2.5, D 1.76, I 3.39, P 2.42, R 1.88, V 3.5, N 2.83
R19: E 2.47, M 2.14, P 2.25, H 3.1, I 3, W 2.74, Q 2.64, G 3.05, T 2.99, N 1.76, S 2.23, D 2.11, V 2.64
I15: L 2.31, P 2.17, E 1.69, Q 2.07, N 2.98, S 2.17, A 1.66, D 1.75, T 2.6, G 2.77, K 3.7, F 1.08
L22: T 1.93, S 2.1, Q 2.88, E 3.14, C 2.8, M 2.2, F 3.35, K 2.38, H 2.52, D 2.84, Y 2.83, A 2.2, N 2.83, R 2.14, G 1.8, V 2.97, P 3.33
N18: K 3.44, H 2.65, W 1.96, E 3.06, P 3.68, S 2.99, D 2.18, G 2.33, I 2.9, Y 2.01, R 3.44
L11: Y 3.58, R 1.39, T 1.91, S 2.68, Q 2.72
E16: Q 3.1, V 2.8, G 2.38, H 2.52, Y 1.32, F 3.08, D 3.13, A 3.13, M 2.72, C 2.33, S 2.3, L 3.35, W 3.31
V20: E 2.27, R 1.72, N 2.57, P 1.78, Y 1.78, Q 2.05, W 3.15, S 2.01, G 1.6, D 2.35, H 1.6, A 1.82, T 2.33, K 2.1, L 3.48, I 2.69, F 1.8
I21: Y 2.79, K 1.74, G 1.62, N 1.64, S 1.55, M 2.18, E 2.19, L 2.52, H 2.49, F 3.3, P 2.44, C 2.42, Q 1.94, T 1.47, D 2.43, V 2.6, R 2.49
T14: M 2.52, H 2.53, C 3.4, A 4.11, E 2.77, G 4.63, R 2.59, P 2.52, V 1.02, D 2.57, N 3.03, L 1.71, Q 2.99
